Where a chain is given by its changes, count along the chain named.

Experiment [1] has as its target T1, Human TROP2 Protein, His Tag (Acro Biosystems) (human, UniProt P09758 27-274).
T1 construct: Bought antigen used at 50 nM in the Octet screen; also called TACSTD2; not shown: His tag
T1 sequence (looked up): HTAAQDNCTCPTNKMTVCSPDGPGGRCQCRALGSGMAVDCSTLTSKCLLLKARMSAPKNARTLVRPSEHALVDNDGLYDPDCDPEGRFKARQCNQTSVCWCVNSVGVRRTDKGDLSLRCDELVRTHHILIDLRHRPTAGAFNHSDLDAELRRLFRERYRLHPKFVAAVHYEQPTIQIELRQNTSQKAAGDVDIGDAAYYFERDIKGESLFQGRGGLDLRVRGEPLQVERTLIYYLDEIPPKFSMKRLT
Put plainly: BLI (Octet) [2/2]. Here is the method: (§1) After allowing for four days of protein expression, cell culture supernatants were collected, quantified by SDS-PAGE analysis (DNS), and the pH dependence of the variant was evaluated using biolayer interferometry (BLI) on an Octet RED 96e instrument. Briefly, cell culture supernatants were diluted based on qualitative expression level of the variant determined by visual examination of SDS-PAGE gels, 5 μL of cell culture supernatant was diluted into 195 μL of 1×PBST, pH 7.4 for high expressors, 25 μL of cell culture supernatant was diluted into 175 μL of 1×PBST, pH 7.4 for medium expressors and 100 μL of cell culture supernatant was diluted into 100 μL of 1×PBST, pH 7.4 for low expressors for loading onto the sensor tips. The resulting diluted supernatants were then captured on an anti-human Fc sensor (Forte Bio). A baseline was established using 1×PBST (50 mM Potassium Phosphate Buffer+150 mM NaCl+0.05% Tween 20) pH 7.4, and the sensor was associated with 50 nM of TROP2 (Human TROP2 Protein, His Tag, Acro Biosystems) in 1×PBST pH 7.4 for 120 sec to generate an association curve. In the dissociation phase, the antibody-antigen complex on the sensor was exposed to 1×PBST pH 7.4 or pH 5.4, for 300 sec. Association and dissociation phase curves were examined for the starting ABPC antibody (with no substitutions) and each corresponding antibody variant at pH 5.4 and pH 7.4 to inform on two criteria: a) enhanced dissociation (i.e., higher koff values) at pH 5.4 due to histidine or alanine substitution compared to the starting ABPC, (with no substitutions), and b) reduced dissociation at pH 7.4 (i.e., lower koff values) compared to pH 5.4 in the antibody variant itself and with the starting ABPC (with no substitutions). […] It was also noted that while some mutations obliterated TROP2 binding, others were tolerated with little or n change in TROP2 binding kinetics.
On the technique in general: In BLI a coated tip is dipped into the sample, and binding shifts an interference pattern.

Experiment [2] deals with T2, Human TROP2 Protein, His Tag (human, UniProt P09758 27-274).
T2 construct: Bought protein; also called TACSTD2; not shown: His tag
T2 sequence (looked up): T1 sequence (looked up)
Nature of the experiment: BLI (Octet) [2/2]. The protocol: as §1

The target in experiment [3] is T3, Human TROP2 Protein, His Tag (Acro Biosystems) (human, UniProt P09758 27-274).
T3 construct: not shown: His tag
T3 sequence (looked up): T1 sequence (looked up)
Nature of the experiment: BLI (Octet).

B1: MYT11756 (antibody, V domains shown)
VH: QVQLQESGPGLVKPSETLSLTCTVSGGSISSYGVHWIRQPPGKGLEWIGVIWTSGVTDYNSALMGRVTISVDTSKNQFSLKLSSVTAADTAVYYCARDGDYDRYTMDYWGQGTLVTVSS
VL: DIVMTQSPDSLAVSLGERATINCRASKSVSTSGYSHMHWYQQKPGQPPKLLIYLASNLESGVPDRFSGSGSGTDFTLTISSLQAEDVAVYYCQHSRELPYTFGQGTKLEIK
notes: hu7E6SVG variant, His at LCV position 36 (L1 13); screened as IgG in Expi293 supernatant
Consider B1, for which, in experiment [1], the binding result is reported as “binds”.

B2: MYT11762 (antibody, V domains shown)
VH: B1 VH
VL: B1 VL with H36Y, N57H
notes: hu7E6SVG variant, His at LCV position 57 (L2 04); screened as IgG in Expi293 supernatant
For B2, the binding result in experiment [1] is given as “binds”.

B3: MYT11760 (antibody, V domains shown)
VH: B1 VH
VL: B1 VL with H36Y, A55H
notes: hu7E6SVG variant, His at LCV position 55 (L2 02); screened as IgG in Expi293 supernatant
For the molecule B3, in experiment [1], the binding result is listed as “binds”.

B4: MYT11761 (antibody, V domains shown)
VH: B1 VH
VL: B1 VL with H36Y, S56H
notes: hu7E6SVG variant, His at LCV position 56 (L2 03); screened as IgG in Expi293 supernatant
For B4, the binding result in experiment [1] was “binds”.

B5: MYT11763 (antibody, V domains shown)
VH: B1 VH
VL: B1 VL with H36Y, L58H
notes: hu7E6SVG variant, His at LCV position 58 (L2 05); screened as IgG in Expi293 supernatant
Regarding B5, in experiment [1], the binding result is “binds”.

B6: MYT11758 (antibody, V domains shown)
VH: B1 VH
VL: B1 VL with H36Y, H38A
notes: hu7E6SVG variant, Ala in place of His at LCV position 38 (L1 15); screened as IgG in Expi293 supernatant
With B6, the binding result in experiment [1] was “binds”.

B7: MYT11764 (antibody, V domains shown)
VH: B1 VH
VL: B1 VL with H36Y, E59H
notes: hu7E6SVG variant, His at LCV position 59 (L2 06); screened as IgG in Expi293 supernatant
For B7, in experiment [1], the binding result is “binds”.

B8: MYT11765 (antibody, V domains shown)
VH: B1 VH
VL: B1 VL with H36Y, S60H
notes: hu7E6SVG variant, His at LCV position 60 (L2 07); screened as IgG in Expi293 supernatant
For the molecule B8, in experiment [1], the binding result is “binds”.

B9: MYT11767 (antibody, V domains shown)
VH: B1 VH
VL: B1 VL with H36Y, H94A
notes: hu7E6SVG variant, Ala in place of His at LCV position 94 (L3 02); screened as IgG in Expi293 supernatant
For the molecule B9, the binding result in experiment [1] is “binds”.

B10: MYT11759 (antibody, V domains shown)
VH: B1 VH
VL: B1 VL with H36Y, L54H
notes: hu7E6SVG variant, His at LCV position 54 (L2 01); screened as IgG in Expi293 supernatant
Regarding B10, the binding result in experiment [1] was “binds”.

B11: MYT11677 (antibody, V domains shown)
VH: QVQLVQSGAEVKKPGASVKVSCKASGYTFTTAGMQWVRQAPGQGLEWMGWINTHSGVPKYAEDFKGRVTISADTSTSTAYLQLSSLKSEDTAVYYCARSGFGSSYWYFDVWGQGTLVTVSS
VL: DIQMTQSPSSLSASVGDRVTITCHASQDVSTAVAWYQQKPGKAPKLLIYSASYRYTGVPSRFSGSGSGTDFTLTISSLQPEDFAVYYCQQHYITPLTFGQGTKLEIK
notes: IgG from supernatant; His at LCV position 24; also called datopotamab variant L1 01
Regarding B11, in experiment [2], the binding result is recorded as “binds”.

B12: MYT11686 (antibody, V domains shown)
VH: B11 VH
VL: B11 VL with H24K, V33H
notes: IgG from supernatant; His at LCV position 33; also called datopotamab variant L1 10
On to B12, for which the binding result in experiment [2] is “binds”.

B13: MYT12367 (antibody, V domains shown)
VH: QVQLQQSGSELKKPGASVKVSCKASGYTFTNYGMNWVKQAPGQGLKWMGWINTYTGEPTYTDDFKGRFAFSLDTSVSTAYLQISSLKADDTAVYFCARGGFGSSYWYFDVWGQGSLVTVSS
VL: B11 VL with M4L, T20S, H24K, T31I, S60D, Y92H, I93H, Q100A, L104V
notes: sacituzumab VL 92, 93 -> H
B13: in experiment [3], the binding result is “binds”.

B14: MYT11693 (antibody, V domains shown)
VH: B11 VH
VL: B11 VL with H24K, Y55H
notes: IgG from supernatant; His at LCV position 55; also called datopotamab variant L2 06
Consider B14, for which the binding result in experiment [2] is reported as “binds”.

B15: MYT11683 (antibody, V domains shown)
VH: B11 VH
VL: B11 VL with H24K, S30H
notes: IgG from supernatant; His at LCV position 30; also called datopotamab variant L1 07
On to B15, for which the binding result in experiment [2] is “binds”.

B16: MYT12370 (antibody, V domains shown)
VH: B13 VH
VL: B11 VL with M4L, T20S, H24K, S30H, T31I, A51H, S60D, I93H, Q100A, L104V
notes: sacituzumab VL 30, 51, 93 -> H
With B16, in experiment [3], the binding result is recorded as “binds”.

B17: MYT11684 (antibody, V domains shown)
VH: B11 VH
VL: B11 VL with H24K, T31H
notes: IgG from supernatant; His at LCV position 31; also called datopotamab variant L1 08
Take B17: the binding result in experiment [2] is reported as “binds”.

B18: MYT11702 (antibody, V domains shown)
VH: B11 VH
VL: B11 VL with H24K, L96H
notes: IgG from supernatant; His at LCV position 96; also called datopotamab variant L3 08
Take B18: the binding result in experiment [2] was “no binding (tested: 50 nM)”.

B19: MYT11701 (antibody, V domains shown)
VH: B11 VH
VL: B11 VL with H24K, P95H
notes: IgG from supernatant; His at LCV position 95; also called datopotamab variant L3 07
In the case of B19, the binding result in experiment [2] is recorded as “binds”.

B20: MYT11700 (antibody, V domains shown)
VH: B11 VH
VL: B11 VL with H24K, T94H
notes: IgG from supernatant; His at LCV position 94; also called datopotamab variant L3 06
As to B20, in experiment [2], the binding result was “binds”.

B21: MYT12368 (antibody, V domains shown)
VH: B13 VH
VL: B11 VL with M4L, T20S, H24K, S30H, T31I, A51H, Y53H, S60D, Q100A, L104V
notes: sacituzumab VL 30, 51, 53 -> H
B21: the binding result in experiment [3] is “binds”.

B22: MYT11681 (antibody, V domains shown)
VH: B11 VH
VL: B11 VL with H24K, D28H
notes: IgG from supernatant; His at LCV position 28; also called datopotamab variant L1 05
For the molecule B22, the binding result in experiment [2] was “binds”.

B23: MYT11685 (antibody, V domains shown)
VH: B11 VH
VL: B11 VL with H24K, A32H
notes: IgG from supernatant; His at LCV position 32; also called datopotamab variant L1 09
As for B23, the binding result in experiment [2] is “no binding (tested: 50 nM)”.

B24: MYT12373 (antibody, V domains shown)
VH: B13 VH
VL: B11 VL with M4L, T20S, H24K, S30H, T31I, S60D, Q89H, I93H, Q100A, L104V
notes: sacituzumab VL 30, 89, 93 -> H
Consider B24, for which the binding result in experiment [3] is “binds”.

B25: MYT11689 (antibody, V domains shown)
VH: B11 VH
VL: B11 VL with H24K, A51H
notes: IgG from supernatant; His at LCV position 51; also called datopotamab variant L2 02
Regarding B25, in experiment [2], the binding result was “binds”.

B26: MYT12369 (antibody, V domains shown)
VH: B13 VH
VL: B11 VL with M4L, T20S, H24K, S30H, T31I, A51H, S60D, Q89H, Q100A, L104V
notes: sacituzumab VL 30, 51, 89 -> H
Consider B26, for which the binding result in experiment [3] is on record as “binds”.

B27: MYT11697 (antibody, V domains shown)
VH: B11 VH
VL: B11 VL with H24K, H91A
notes: IgG from supernatant; Ala at LCV position 91 (starting residue His); also called datopotamab variant L3 03
Take B27: the binding result in experiment [2] is given as “binds”.

B28: MYT11695 (antibody, V domains shown)
VH: B11 VH
VL: B11 VL with H24K, Q89H
notes: IgG from supernatant; His at LCV position 89; also called datopotamab variant L3 01
For the molecule B28, in experiment [2], the binding result was “binds”.

B29: MYT11694 (antibody, V domains shown)
VH: B11 VH
VL: B11 VL with H24K, T56H
notes: IgG from supernatant; His at LCV position 56; also called datopotamab variant L2 07
On to B29, for which, in experiment [2], the binding result was “binds”.

B30: MYT11692 (antibody, V domains shown)
VH: B11 VH
VL: B11 VL with H24K, R54H
notes: IgG from supernatant; His at LCV position 54; also called datopotamab variant L2 05
As for B30, the binding result in experiment [2] is reported as “binds”.

B31: MYT11698 (antibody, V domains shown)
VH: B11 VH
VL: B11 VL with H24K, Y92H
notes: IgG from supernatant; His at LCV position 92; also called datopotamab variant L3 04
With B31, the binding result in experiment [2] was “no binding (tested: 50 nM)”.

B32: MYT11696 (antibody, V domains shown)
VH: B11 VH
VL: B11 VL with H24K, Q90H
notes: IgG from supernatant; His at LCV position 90; also called datopotamab variant L3 02
Turning to B32, the binding result in experiment [2] was “binds”.

B33: MYT11703 (antibody, V domains shown)
VH: B11 VH
VL: B11 VL with H24K, T97H
notes: IgG from supernatant; His at LCV position 97; also called datopotamab variant L3 09
As to B33, in experiment [2], the binding result is on record as “no binding (tested: 50 nM)”.

These data come from US20260274985A1 (MYTHIC THERAPEUTICS, published 2026).
